# Assay results published in patent US20080050370A1 (Biogen, published 2008).
# Where a chain is given by its changes, count along the chain named. In names and notes the source's numbering stands.
# B1: conventional BHA10 scFv, VH-(Gly4Ser)3-VL (scFv)
# scFv: QVQLVQSGAEVKKPGSSVKVSCKASGYTFTTYYLHWVRQAPGQGLEWMGWIYPGNVHAQYNEKFKGRVTITADKSTSTAYMELSSLRSEDTAVYYCARSWEGFPYWGQGTTVTVSSGGGGSGGGGSGGGGSDIQMTQSPSSLSASVGDRVTITCKASQNVGINVAWYQQKPGKAPKSLISSASYRYSGVPSRFSGSGSGTDFTLTISSLQPEDFATYFCQQYDTYPFTFGQGTKVEIK
# notes: also called Wild-type, (G4S)*3 linker; WT
# B2: BHA10 (Gly4Ser)4 scFv (scFv)
# scFv: QVQLVQSGAEVKKPGSSVKVSCKASGYTFTTYYLHWVRQAPGQGLEWMGWIYPGNVHAQYNEKFKGRVTITADKSTSTAYMELSSLRSEDTAVYYCARSWEGFPYWGQGTTVTVSSGGGGSGGGGSGGGGSGGGGSDIQMTQSPSSLSASVGDRVTITCKASQNVGINVAWYQQKPGKAPKSLISSASYRYSGVPSRFSGSGSGTDFTLTISSLQPEDFATYFCQQYDTYPFTFGQGTKVEIK
# notes: His-tagged (captured through anti-PENTA-His); also called Wild-type, (G4S)*4 linker; GS4
# B3: BHA10 VH44:VL100/(Gly4Ser)4 scFv (scFv)
# scFv: B2 scFv with G44C, Q236C
# notes: Cys at Kabat VH44 and VL100 form a disulfide; also called Wild-type, (G4S)*4 linker w/ VH44/VL100 disulfide; 009 (ss)
# B4: BHA10 Fab (Fab, V domains shown)
# VH: QVQLVQSGAEVKKPGSSVKVSCKASGYTFTTYYLHWVRQAPGQGLEWMGWIYPGNVHAQYNEKFKGRVTITADKSTSTAYMELSSLRSEDTAVYYCARSWEGFPYWGQGTTVTVSS
# VL: DIQMTQSPSSLSASVGDRVTITCKASQNVGINVAWYQQKPGKAPKSLISSASYRYSGVPSRFSGSGSGTDFTLTISSLQPEDFATYFCQQYDTYPFTFGQGTKVEIK
# notes: Made by enzymatic cleavage of BHA10 IgG1; also called BHA10 Fab (CHO)
# B5: BHA10 scFv VH44/VL100 disulfide, VH-S16E, VL-S46L, (G4S)4 linker (scFv, name in Kabat numbering)
# scFv: B2 scFv with S16E, G44C, S182L, Q236C
# notes: It is read here as the disulfide version; also called 080 VL-S46L + VH-S16E + ss
# B6: BHA10 scFv VH-S16Q, VL-S46L, (G4S)4 linker, no disulfide (scFv, name in Kabat numbering)
# scFv: B2 scFv with S16Q, S182L
# notes: Positions are Kabat numbers of the VH and VL domains; also called 078 VL-S46L + VH-S16Q; pIEH078
# B7: BHA10 scFv VH-S16E, VL-S46L, (G4S)4 linker, no disulfide (scFv, name in Kabat numbering)
# scFv: B2 scFv with S16E, S182L
# notes: Positions are Kabat numbers of the VH and VL domains, not of the scFv entry; also called 076 VL-S46L + VH-S16E; pIEH076
# B8: BHA10 scFv VH-P101D, (G4S)4 linker (scFv, name in Kabat numbering)
# scFv: B2 scFv with P104D
# notes: Built on the (G4S)4 scFv; The position is a Kabat number of VH; also called 077 VH-P101D; pIEH058
# B9: BHA10 scFv VH-S16E, (G4S)4 linker (scFv, name in Kabat numbering)
# scFv: B2 scFv with S16E
# notes: Positions are Kabat numbers of the VH domain; also called 074 VH-S16E; pIEH032
# B10: BHA10 scFv VH-S16E, VH-V55G, VL-S46L, (G4S)4 linker (scFv, name in Kabat numbering)
# scFv: B2 scFv with S16E, V56G, S182L
# notes: Positions are Kabat numbers of the VH and VL domains; also called 087 VL-S46L + VH-S16E, V55G; pIEH087
# B11: BHA10 scFv VL-S46L, (G4S)4 linker (scFv)
# scFv: QVQLVQSGAEVKKPGSSVKVSCKASGYTFTTYYLHWVRQAPGQGLEWMGWIYPGNVHAQYNEKFKGRVTITADKSTSTAYMELSSLRSEDTAVYYCARSWEGFPYWGQGTTVTVSSGGGGSGGGGSGGGGSGGGGSDIQMTQSPSSLSASVGDRVTITCKASQNVGINVAWYQQKPGKAPKLLISSASYRYSGVPSRFSGSGSGTDFTLTISSLQPEDFATYFCQQYDTYPFTFGQGTKVEIKDDDDKSFLEQKLISEEDLNSAVDHHHHHH
# notes: also called 072 VL-S46L; pIEH029
# B12: BHA10 scFv VH-V55G, (G4S)4 linker (scFv)
# scFv: B11 scFv with V56G, L182S
# notes: also called 079 VH-V55G; pIEH070
# B13: BHA10 VH44/VL100 scFv (scFv)
# scFv, VH-(Gly4Ser)3-VL: B1 scFv with G44C, Q231C
# modifications: disulfide bond between VH44 Cys and VL100 Cys (Kabat)
# notes: Expressed in E. coli; also called IEH006 (GS3 + SS); pIEH006
# B14: IEH031 (GS4 + SS + VL S46L) (scFv)
# scFv: B11 scFv with G44C, Q236C
# modifications: chain 1: engineered disulfide bond between Cys at pos 44 (VH Kabat 44) and Cys at pos 236 (VL Kabat 100)
# notes: also called pIEH031; BHA10 scFv VH44-VL100 disulfide, (Gly4Ser)4 linker, VL S46L
# B15: BHA10 scFv VH44/VL100 disulfide, VH-S16Q, VL-S46L, (G4S)4 linker (scFv, name in Kabat numbering)
# scFv: B2 scFv with S16Q, G44C, S182L, Q236C
# notes: It is read here as the disulfide version; also called pIEH081
# B16: BHA10 scFv VH44:VL100 NH-Hercules bispecific antibody (bispecific antibody)
# heavy: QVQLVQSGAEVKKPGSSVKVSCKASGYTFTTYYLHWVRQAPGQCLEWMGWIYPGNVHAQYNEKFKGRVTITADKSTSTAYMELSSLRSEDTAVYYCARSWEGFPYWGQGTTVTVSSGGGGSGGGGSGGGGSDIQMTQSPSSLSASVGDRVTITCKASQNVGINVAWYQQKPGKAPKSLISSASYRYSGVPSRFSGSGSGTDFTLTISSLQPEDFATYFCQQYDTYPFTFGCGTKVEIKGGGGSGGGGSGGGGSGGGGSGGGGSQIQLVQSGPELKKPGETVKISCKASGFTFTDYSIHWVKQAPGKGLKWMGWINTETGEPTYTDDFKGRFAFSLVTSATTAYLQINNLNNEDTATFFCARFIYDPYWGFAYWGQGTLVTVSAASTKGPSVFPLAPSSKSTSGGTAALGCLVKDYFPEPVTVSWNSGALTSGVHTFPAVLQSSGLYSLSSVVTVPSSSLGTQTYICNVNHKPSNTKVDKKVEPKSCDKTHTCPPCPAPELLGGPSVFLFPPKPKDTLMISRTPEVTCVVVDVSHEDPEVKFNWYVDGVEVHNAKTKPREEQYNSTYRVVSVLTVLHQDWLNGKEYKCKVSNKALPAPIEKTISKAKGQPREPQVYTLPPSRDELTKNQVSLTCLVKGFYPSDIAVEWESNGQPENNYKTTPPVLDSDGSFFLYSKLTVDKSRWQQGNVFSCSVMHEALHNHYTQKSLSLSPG
# light: QLVLTQSSSVSFSLGASAKLTCTLSSQHSTYTIEWYQQQPLKPPKYVMELKKDGSHSTGDGIPDRFSGSSSGADRYLSISNIQPEDEAIYICGVGDTIKEQFVYVFGGGTKVEIKRTVAAPSVFIFPPSDEQLKSGTASVVCLLNNFYPREAKVQWKVDNALQSGNSQESVTEQDSKDSTYSLSSTLTLSKADYEKHKVYACEVTHQGLSSPVTKSFNRGEC
# notes: BHA10 scFv (anti-LTβR) joined by a (Gly4Ser)5 linker to the N-terminus of the chimeric 14A2 IgG1 (anti-TRAIL R2) heavy chain; also called N-Hercules with VH44:VL100 BHA10 scFv; N-"Hercules" Cys
# B17: BHA10 scFv VH44:VL100/(Gly4Ser)4 C-Hercules bispecific antibody (bispecific antibody, human IgG1, kappa)
# heavy: not shown
# light: B16 light
# notes: scFv at the C-terminus of the chimeric 14A2 IgG1 heavy chain; For signal peptides see m17; also called XWU036; pXWU036
# B18: BHA10 scFv VH44:VL100/(Gly4Ser)4 NH-Hercules bispecific antibody (bispecific antibody, human IgG1, kappa)
# heavy: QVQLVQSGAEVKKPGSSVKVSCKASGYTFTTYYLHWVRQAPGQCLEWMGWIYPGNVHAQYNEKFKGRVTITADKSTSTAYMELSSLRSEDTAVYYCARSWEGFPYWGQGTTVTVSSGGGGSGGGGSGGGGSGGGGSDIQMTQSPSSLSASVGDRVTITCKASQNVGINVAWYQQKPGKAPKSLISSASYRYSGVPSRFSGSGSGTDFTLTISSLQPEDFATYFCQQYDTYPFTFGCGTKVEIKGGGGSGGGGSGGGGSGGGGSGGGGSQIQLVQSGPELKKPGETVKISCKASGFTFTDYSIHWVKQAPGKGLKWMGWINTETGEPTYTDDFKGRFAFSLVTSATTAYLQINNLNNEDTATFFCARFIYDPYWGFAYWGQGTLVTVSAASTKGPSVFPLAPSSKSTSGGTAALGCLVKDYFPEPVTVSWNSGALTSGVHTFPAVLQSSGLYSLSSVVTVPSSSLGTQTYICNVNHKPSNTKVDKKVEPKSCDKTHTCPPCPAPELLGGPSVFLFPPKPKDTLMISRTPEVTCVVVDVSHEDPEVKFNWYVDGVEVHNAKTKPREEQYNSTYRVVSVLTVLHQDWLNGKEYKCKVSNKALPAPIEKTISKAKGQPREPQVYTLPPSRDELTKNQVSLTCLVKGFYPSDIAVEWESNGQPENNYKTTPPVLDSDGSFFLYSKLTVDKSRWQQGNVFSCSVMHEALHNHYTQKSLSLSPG
# light: B16 light
# notes: scFv at the N-terminus of the chimeric 14A2 IgG1 heavy chain; For signal peptides see m17; also called XWU028; pXWU028
# B19: BHA10 scFv VH44:VL100 C-Hercules bispecific antibody (bispecific antibody, human IgG1, kappa)
# heavy: not shown
# light: B16 light
# notes: BHA10 scFv joined by a Ser(Gly4Ser)3 linker to the C-terminus of the chimeric 14A2 IgG1 heavy chain; For signal peptides see m17; also called C-Hercules with VH44:VL100 BHA10 scFv; C-"Hercules" Cys
# Biological target: T1, sLTβR (UniProt P36941 31-227, limits assumed)
# T1 construct: Used in solution in ITC and as the analyte in SPR; also called soluble lymphotoxin beta receptor; antigen
# Assay: SPR (Biacore 3000), scFv captured on anti-PENTA-His, sLTβR 1-200 nM as analyte, 1:1 Langmuir fit
# Procedure: (§1) All experiments were performed in HBS-EP buffer, pH 7.4. […] 0.1 μM solutions of test scFvs were injected over the chip at a flow rate of 5 μl/min for 10 minutes and captured onto the surface via the immobilized PENTA-His antibody. To investigate binding between sLTβR and captured scFv, a concentration series of sLTβR (1, 2, 5, 10, 25, 50, 100, and 200 nM) was double injected at a flow rate of 30 μl/min onto the scFv-coated surface. Background was subtracted from test sample sensorgrams using sensorgram data from a flow cell containing buffer only and sensorgram data from the PENTA-His surface where scFv was injected followed by an injection of buffer instead of sLTβR. The curves were analyzed using the BiaEval 3.0 manufacturer's software. KD values were calculated by fitting kinetic association and dissociation curves to a 1:1 Langmuir binding model. Chip surfaces were regenerated by two consecutive 10 μL injections of 0.1 M glycine, pH 3.0.
# T1 sequence (P36941 31-227 limits assumed): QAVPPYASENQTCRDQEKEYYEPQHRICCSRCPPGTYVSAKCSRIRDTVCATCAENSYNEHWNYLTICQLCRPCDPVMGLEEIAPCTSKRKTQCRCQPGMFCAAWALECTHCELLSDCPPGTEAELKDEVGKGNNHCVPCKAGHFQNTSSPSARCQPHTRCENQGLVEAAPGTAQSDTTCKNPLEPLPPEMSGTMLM
row,Binder,Kd [nM]
1,B1,3.7

# Biological target: T1, sLTβR
# Assay: SPR (Biacore 3000), scFv captured on anti-PENTA-His, sLTβR as analyte, 1:1 Langmuir fit
# Procedure: as §1
row,Binder,Kd [nM]
1,B2,2.5
2,B3,4.3

# Biological target: T1, sLTβR
# Assay: isothermal titration calorimetry at 30 °C, Fab titrated into sLTβR in PBS
# Procedure: The Fab and sLTβR were concentrated to 6.0 and 2.0 mg/mL, respectively, using Amicon ultracentrifugal filter devices (MWCO 10,000). The concentrated stock solutions were simultaneously dialyzed against PBS prior to the ITC measurements. ITC was performed on a VP-ITC unit (MicroCal LLC, Northampton, Mass.) set to 30° C. Approximately 500 μL of a 7 μM sLTβR solution was placed into the sample cell and PBS dialysate was placed in the reference cell. […] ITC curves were analysed using the Origin Software supplied by the manufacturer.
row,Binder,Kd [nM]
1,B4,1.9

# Biological target: T1, sLTβR
# Assay: SPR (Biacore 3000); with VH44/VL100 disulfide (second 'VH-S16E, VL-S46L' row, below the disulfide wild-type)
row,Binder,Kd [nM]
1,B5,4

# Biological target: T1, sLTβR
# Assay: SPR (Biacore 3000)
row,Binder,Kd [nM]
1,B1,2.7
2,B2,2.1
3,B6,4.2
4,B3,3.3
5,B7,3.4
6,B8,5.2
7,B9,2
8,B10,3.8
9,B11,4
10,B12,2.2

# Biological target: T2, LTβR-Ig (UniProt P36941 31-227, limits assumed)
# T2 construct: extracellular domain; also called LTβR Ig receptor; recombinantly produced LTβR receptor; not shown: human Fc region
# Assay: thermal challenge assay, remaining binding to plate-coated LTβR-Ig read by DELFIA; unit taken from the x axis
# T2 sequence (P36941 31-227 limits assumed): as above
row,Binder,midpoint temperature of the thermal challenge curve (T50) [°C]
1,B13,61.5
2,B3,63.3
3,B11,60.3
4,B14,72.3

# Biological target: T1, sLTβR
# Assay: SPR (Biacore 3000); with VH44/VL100 disulfide (second 'VH-S16Q, VL-S46L' row, below the disulfide wild-type)
row,Binder,Kd [nM]
1,B15,3.3

# Biological target: T2, LTβR-Ig
# Assay: thermal challenge assay; T50 = temperature at which 50% of the molecules keep binding to plate-coated LTβR-Ig (DELFIA); unit taken from the x axis
# Procedure: An aliquot of the supernatant was reserved for the reference DELFIA. […] For screens requiring multiple challenge temperatures (or for temperatures greater than 75° C.) the supernatants were transferred to 96-well PCR plates (Applied Biosystems, Foster City, Calif., Cat. # N801-560) and incubated for 90 minutes at the desired temperature.
# After thermal challenge, the samples were centrifuged at 2,000 RPM to remove aggregated material. Soluble BHA10 scFv samples remaining in the treated, cleared supernatant were assayed for binding to cognate LTβR Ig antigen by DELFIA assay. […] Plates were coated overnight at 4° C., and blocked with DELFIA assay buffer (DAB, 10 mM Tris HCl, 150 mM NaCl, 20 μM EDTA, 0.5% BSA, 0.02% Tween 20, 0.01% NaN₃, pH 7.4) for one hour with shaking at room temperature. Plates were washed 3 times with DAB without BSA (Wash buffer), and test samples diluted in DAB were added to the plates in a final volume of 100 μl. The plates were incubated for one hour with shaking at room temperature, and then washed 3 times with Wash buffer to remove unbound and functionally inactivated scFv molecules. Bound BHA10 scFv was detected by addition of 100 μl per well of DAB containing 40 ng/ml of Eu-labeled anti-His₆ antibody (Perkin Elmer, Boston, Mass., Cat. # AD0109) and incubated at room temperature with shaking for one hour.
row,Binder,T50 [°C]
1,B4,62
2,B1,49
3,B13,59
4,B2,53
5,B3,62

# Biological target: T2, LTβR-Ig
# Assay: bispecific sandwich ELISA: LTβR-Ig coated on the plate, purified antibody titrated, then TRAIL-R2 Fc 6X-His, detection with anti-His HRP conjugate; signal needs binding to both receptors
# Procedure: In the next step, 100 μl individual ‘Hercules’ supernatant or purified protein in dilution buffer was added to duplicate wells and incubated for 1 h at 37° C. After washing with tap water, 100 μl of 100 ng/ml TRAIL-R2 Fc 6X-His tagged fusion protein (R&D Systems, Minneapolis, Minn.) was added to the wells and incubated for 1 h at 37° C. […] After washing, 100 μl/well of a HRPO Substrate combined TMB Peroxidase Substrate/Peroxidase Solution B (Kirdgaard and Perry Labs, Cat. 50-76-00) was added. The reaction was stopped with 100 μl of 2M H₂SO₄ after 5 to 10 min. The OD was measured at 450 nm and 540 nm using a Molecular Devices plate reader and binding curves were generated.
# Purified versions of the stabilized Hercules constructs were then tested for bispecific binding activity to recombinantly produced TRAIL-R2 and LTβR receptors in an ELISA assay. In this assay LTβR Ig receptor was immobilized onto plates and test samples were then incubated to permit binding to receptor. Unbound samples were removed by washing followed by a second incubation step with TRAIL R2-(His)₆. Following a wash step, doubly-bound complexes were detected with a labeled anti-(His)₆ antibody.
row,Binder,EC50 [µg/mL]
1,B16,0.041
2,B17,0.086
3,B18,0.055
4,B19,0.087
